# From PMC8391708, “Anti-Inflammatory Effects of C1q/Tumor Necrosis Factor-Related Protein 3 (CTRP3) in Endothelial Cells” (Cells, 2021)
# B1: C1q/TNF-related protein 3 (CTRP3), recombinant (natural protein, human, UniProt Q9BXJ4 23-246, looked up)
# chain: QDEYMESPQTGGLPPDCSKCCHGDYSFRGYQGPPGPPGPPGIPGNHGNNGNNGATGHEGAKGEKGDKGDLGPRGERGQHGPKGEKGYPGIPPELQIAFMASLATHFSNQNSGIIFSSVETNIGNFFDVMTGRFGAPVSGVYFFTFSMMKHEDVEEVYVYLMHNGNTVFSMYSYEMKGKSDTSSNHAVLKLAKGDEVWLRMGNGALHGDHQRFSTFAGFLLFETK
# notes: C1q/TNF-related protein 3 (CTRP3), human, recombinant; also called C1q/Tumor Necrosis Factor-Related Protein 3; recombinant human CTRP3; source: baculovirus expression system in insect H5 cells
# Biological target: the molecule itself
# Assay: SDS-PAGE; recombinant CTRP3 run on SDS-polyacrylamide gels, stained with Coomassie; band at <100 kDa read as a trimer
protein,measurement,value
B1,stoichiometry N,3
